Source: article PMC9365787, “Molecular basis of MHC I quality control in the peptide loading complex” (Nature Communications, 2022)

T1: ERp57 (human (endogenous in Raji), UniProt P30101 25-505, disulfide from Cys33 to Cys95 of tapasin)
T1 construct: also called disulfide isomerase ERp57; source: endogenous, Raji (Burkitt's lymphoma) cells, solubilised in GDN; purified within the PLC by ICP47^SBP and reconstituted in MSP2N2 nanodiscs
T1 sequence (looked up): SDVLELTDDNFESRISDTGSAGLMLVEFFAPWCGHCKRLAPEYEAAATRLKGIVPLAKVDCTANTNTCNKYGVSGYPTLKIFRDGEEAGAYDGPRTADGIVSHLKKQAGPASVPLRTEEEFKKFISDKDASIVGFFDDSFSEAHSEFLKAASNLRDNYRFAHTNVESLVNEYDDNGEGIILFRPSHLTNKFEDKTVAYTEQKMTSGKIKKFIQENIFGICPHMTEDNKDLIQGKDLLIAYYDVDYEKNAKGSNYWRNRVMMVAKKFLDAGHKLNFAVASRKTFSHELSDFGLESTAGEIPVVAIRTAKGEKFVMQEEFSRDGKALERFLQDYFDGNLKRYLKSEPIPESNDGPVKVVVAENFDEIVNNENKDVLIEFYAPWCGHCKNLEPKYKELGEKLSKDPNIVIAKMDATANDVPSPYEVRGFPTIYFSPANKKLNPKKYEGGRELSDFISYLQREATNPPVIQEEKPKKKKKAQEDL

B1: tapasin (natural protein, human (endogenous in Raji), UniProt O15533 21-448, looked up)
chain: GPAVIECWFVEDASGKGLAKRPGALLLRQGPGEPPPRPDLDPELYLSVHDPAGALQAAFRRYPRGAPAPHCEMSRFVPLPASAKWASGLTPAQNCPRALDGAWLMVSISSPVLSLSSLLRPQPEPQQEPVLITMATVVLTVLTHTPAPRVRLGQDALLDLSFAYMPPTSEAASSLAPGPPPFGLEWRRQHLGKGHLLLAATPGLNGQMPAAQEGAVAFAAWDDDEPWGPWTGNGTFWLPTVQPFQEGTYLATIHLPYLQGQVTLELAVYKPPKVSLMPATLARAAPGEAPPELLCLVSHFYPSGGLEVEWELRGGPGGRSQKAEGQRWLSALRHHSDGSVSLSGHLQPPPVTTEQHGARYACRIHHPSLPASGRSAEVTLEVAGLSGPSLEDSVGLFLSAFLLLGLFKALGWAAVYLSTCKDSKKKAE
modifications: N-glycan at Asn233 (Man9-0GlcNAc2-1, heterogeneous); disulfide from Cys95 to Cys33 of ERp57
notes: source: endogenous, Raji (Burkitt's lymphoma) cells, solubilised in GDN; purified within the PLC by ICP47^SBP and reconstituted in MSP2N2 nanodiscs
B2: calreticulin (natural protein, human (endogenous in Raji), UniProt P27797 18-417, looked up)
chain: EPAVYFKEQFLDGDGWTSRWIESKHKSDFGKFVLSSGKFYGDEEKDKGLQTSQDARFYALSASFEPFSNKGQTLVVQFTVKHEQNIDCGGGYVKLFPNSLDQTDMHGDSEYNIMFGPDICGPGTKKVHVIFNYKGKNVLINKDIRCKDDEFTHLYTLIVRPDNTYEVKIDNSQVESGSLEDDWDFLPPKKIKDPDASKPEDWDERAKIDDPTDSKPEDWDKPEHIPDPDAKKPEDWDEEMDGEWEPPVIQNPEYKGEWKPRQIDNPDYKGTWIHPEIDNPEYSPDPSIYAYDNFGVLGLDLWQVKSGTIFDNFLITNDEAYAEEFGNETWGVTKAAEKQMKDKQDEEQRLKEEEEDKKRKEEEEAEDKEDDEDKDEDEEDEEDKEEDEEEDVPGQAKDEL
notes: as for B1

Tests used:
ERp57 = biological target: T1, ERp57; test: cryo-EM structure; PLC::MSP2N2 (1.8 mg/ml, 2.5 µM) in lipid nanodiscs without chemical fixation; focused refinement on the fully assembled editing module, 3.7 Å; settings: both partners purified
tapasin = biological target: B1; test: as above; settings: both partners purified

Binder | binding result (ERp57) | binding result (tapasin)
B1 | binds | 
B2 |  | binds
